From article PMC7041688 (The Journal of Cell Biology, 2020)
Each block holds one binder with its values, some of them ahead of it.

Assays:
CHC(1–642)-6xHis = target: T1, CHC(1–642)-6xHis (UniProt Q00610 1-642); assay: pull-down
T1 sequence (looked up): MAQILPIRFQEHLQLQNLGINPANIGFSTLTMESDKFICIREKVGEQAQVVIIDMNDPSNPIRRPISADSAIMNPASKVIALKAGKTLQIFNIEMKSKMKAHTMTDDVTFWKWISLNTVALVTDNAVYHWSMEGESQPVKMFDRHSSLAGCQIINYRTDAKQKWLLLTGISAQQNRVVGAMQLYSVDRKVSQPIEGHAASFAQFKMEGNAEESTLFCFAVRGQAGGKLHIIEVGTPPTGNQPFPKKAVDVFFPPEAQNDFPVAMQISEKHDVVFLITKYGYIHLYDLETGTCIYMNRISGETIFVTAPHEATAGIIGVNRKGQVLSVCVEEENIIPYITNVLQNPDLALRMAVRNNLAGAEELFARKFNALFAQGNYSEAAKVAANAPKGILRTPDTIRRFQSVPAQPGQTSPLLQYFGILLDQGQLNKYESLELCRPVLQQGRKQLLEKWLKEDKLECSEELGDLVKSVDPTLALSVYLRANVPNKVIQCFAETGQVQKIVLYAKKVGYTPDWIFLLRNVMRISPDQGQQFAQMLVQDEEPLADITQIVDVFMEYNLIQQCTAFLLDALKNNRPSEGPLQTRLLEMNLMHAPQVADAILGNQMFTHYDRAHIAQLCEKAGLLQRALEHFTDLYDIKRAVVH

CHC(1–364) = target: T2, CHC(1–364) (UniProt Q00610 1-364); assay: crystal structure
T2 sequence (looked up): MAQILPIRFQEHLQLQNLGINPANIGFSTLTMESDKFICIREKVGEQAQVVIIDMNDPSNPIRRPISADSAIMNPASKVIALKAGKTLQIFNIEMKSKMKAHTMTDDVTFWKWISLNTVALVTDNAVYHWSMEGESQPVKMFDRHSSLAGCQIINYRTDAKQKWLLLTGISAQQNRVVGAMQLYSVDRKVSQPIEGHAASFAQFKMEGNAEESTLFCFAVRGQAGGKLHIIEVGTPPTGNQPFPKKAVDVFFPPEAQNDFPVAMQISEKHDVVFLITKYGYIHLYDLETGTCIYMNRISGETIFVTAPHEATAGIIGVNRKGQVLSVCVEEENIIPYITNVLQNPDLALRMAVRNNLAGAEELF

[1] = target: T3, GTSE1 (purified recombinant) (human, UniProt Q9NYZ3 1-739); assay: pull-down
T3 sequence (looked up): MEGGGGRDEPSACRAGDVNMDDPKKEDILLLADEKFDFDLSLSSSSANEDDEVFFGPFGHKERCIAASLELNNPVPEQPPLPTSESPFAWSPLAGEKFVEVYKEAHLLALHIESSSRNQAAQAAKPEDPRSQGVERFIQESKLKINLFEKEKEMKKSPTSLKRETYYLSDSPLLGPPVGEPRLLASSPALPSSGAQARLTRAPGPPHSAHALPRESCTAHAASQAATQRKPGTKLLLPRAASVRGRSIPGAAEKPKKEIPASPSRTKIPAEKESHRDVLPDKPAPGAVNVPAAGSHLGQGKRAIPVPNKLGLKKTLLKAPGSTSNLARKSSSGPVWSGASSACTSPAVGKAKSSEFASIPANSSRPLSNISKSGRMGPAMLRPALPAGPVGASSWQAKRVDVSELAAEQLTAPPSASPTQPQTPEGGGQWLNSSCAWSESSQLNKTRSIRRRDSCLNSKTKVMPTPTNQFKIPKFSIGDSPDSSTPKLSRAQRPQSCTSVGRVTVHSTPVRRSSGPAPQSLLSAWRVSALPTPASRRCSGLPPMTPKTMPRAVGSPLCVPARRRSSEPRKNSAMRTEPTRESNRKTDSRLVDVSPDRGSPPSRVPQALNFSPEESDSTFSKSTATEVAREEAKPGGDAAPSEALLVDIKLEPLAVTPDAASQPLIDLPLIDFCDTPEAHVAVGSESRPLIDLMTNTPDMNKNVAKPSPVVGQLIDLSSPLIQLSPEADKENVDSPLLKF

GTSE1-GFP (purified) = target: T4, GTSE1-GFP (purified) (human, UniProt Q9NYZ3 1-739); assay: pull-down
T4 sequence (looked up): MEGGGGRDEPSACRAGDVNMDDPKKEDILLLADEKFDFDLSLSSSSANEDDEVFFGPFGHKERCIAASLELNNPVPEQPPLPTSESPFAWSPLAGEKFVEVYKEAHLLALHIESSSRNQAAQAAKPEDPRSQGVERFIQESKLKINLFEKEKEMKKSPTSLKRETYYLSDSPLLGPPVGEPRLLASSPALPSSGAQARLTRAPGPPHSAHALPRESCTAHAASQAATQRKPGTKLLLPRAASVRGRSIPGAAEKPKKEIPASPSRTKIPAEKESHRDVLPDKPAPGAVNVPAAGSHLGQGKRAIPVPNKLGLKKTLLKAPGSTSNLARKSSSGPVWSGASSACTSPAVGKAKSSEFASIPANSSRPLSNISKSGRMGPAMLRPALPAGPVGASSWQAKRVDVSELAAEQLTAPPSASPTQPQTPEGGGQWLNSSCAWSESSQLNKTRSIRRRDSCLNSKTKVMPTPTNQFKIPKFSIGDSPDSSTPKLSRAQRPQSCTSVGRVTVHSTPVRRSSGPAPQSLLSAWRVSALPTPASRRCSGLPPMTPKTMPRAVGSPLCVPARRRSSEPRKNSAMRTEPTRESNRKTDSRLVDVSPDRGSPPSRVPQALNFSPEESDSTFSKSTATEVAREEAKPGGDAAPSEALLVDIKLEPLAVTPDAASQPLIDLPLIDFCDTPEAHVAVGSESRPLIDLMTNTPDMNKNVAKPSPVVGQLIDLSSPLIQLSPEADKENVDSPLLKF

binding result (CHC(1–642)-6xHis): binds
Binder: MTNTPDMNKNVAKPSPVVGQLIDLSSPLIQLSPEADKENVDSPLLKF (domain or fragment, human, UniProt Q9NYZ3 693-739, looked up) [GST-GTSE1-C3]

binding result (CHC(1–642)-6xHis): binds
Binder: MTNTPDMNKNVAKPSPVVGQLIDLSSPAAALSPEADKENVDSPLLKF (domain or fragment, human, UniProt Q9NYZ3 693-739, looked up) [GST-GTSE1-C3 motif E mutant]

binding result (CHC(1–364)): binds
B1: GTSE1-C5 (domain or fragment, human)
chain: GPLGSLAVTPDAASQPLIDLPLIDFCDTPEAHVAVGSESRPLIDLMTNTPDMNKNVAKPSPVVGQLIDLSSP

binding result [1]: binds
binding result (GTSE1-GFP (purified)): binds
B2: GST-CHC(1–330) (domain or fragment, UniProt Q00610 1-330, looked up)
chain: MAQILPIRFQEHLQLQNLGINPANIGFSTLTMESDKFICIREKVGEQAQVVIIDMNDPSNPIRRPISADSAIMNPASKVIALKAGKTLQIFNIEMKSKMKAHTMTDDVTFWKWISLNTVALVTDNAVYHWSMEGESQPVKMFDRHSSLAGCQIINYRTDAKQKWLLLTGISAQQNRVVGAMQLYSVDRKVSQPIEGHAASFAQFKMEGNAEESTLFCFAVRGQAGGKLHIIEVGTPPTGNQPFPKKAVDVFFPPEAQNDFPVAMQISEKHDVVFLITKYGYIHLYDLETGTCIYMNRISGETIFVTAPHEATAGIIGVNRKGQVLSVCVE

binding result [1]: binds
B3: GST-CHC(1–330) S2M (domain or fragment, UniProt Q00610 1-330, looked up)
chain: MAQILPIRFQEHLQLQNLGINPANIGFSTLTMESDKFICIREKVGEQAQVVIIDMNDPSNPIRRPISADSAIMNPASKVIALKAGKTLQIFNIEMKSKMKAHTMTDDVTFWKWISLNTVALVTDNAVYHWSMEGESQPVKMFDRHSSLAGCLIQNYRTDAKQKWLLLTGISAQQNRVVGAMQLYSVDRKVSQPIEGHAASFAQFKMEGNAEESTLFCFAVRGQAGGKLHIIEVGTPPTGNQPFPKKAVDVFFPPEAQNDFPVAMQISEKHDVVFLITKYGYIHLYDLETGTCIYMNRISGETIFVTAPHEATAGIIGVNRKGQVLSVCVE

binding result (CHC(1–364)): binds
B4: GTSE1-C4 (domain or fragment, human)
chain: GPLGSQPLIDLPLIDFCDTPEAHVAVGSESRPLIDLMTNTPDMNKNVAKPSPVVGQLIDLSSPLIQLSPE

binding result (CHC(1–642)-6xHis): binds
Binder: PLAVTPDAASQPLIDLPLIDFCDTPEAHVAVGSESR (domain or fragment, human, UniProt Q9NYZ3 652-687, looked up) [GST-GTSE1-C1]
